Substrate in this data set: O=C1C(Cl)=CC(=Nc2ccc(O)cc2)C=C1Cl
Kind of data set: steady-state kinetics, DCIP reduction. Type of data set: biochemical, Macropsalliota meleagris. The settings on record: apparent, electron acceptor, 25 mM D-glucose as donor, pH 4, 30 °C. The source says:
steady-state kinetics, DCIP reduction on AmPDH (Agaricus meleagris pyranose dehydrogenase, pdh1)

This note sets out measurements from paper PMC3948749, “Engineering of Pyranose Dehydrogenase for Increased Oxygen Reactivity” (PLoS ONE, 2014).

Substitutions are numbered along the chain they refer to. Names may count otherwise.

B1: AmPDH (Agaricus meleagris pyranose dehydrogenase, pdh1) (Macropsalliota meleagris) (protein)
chain: AITYQHPDDLPSGVDYDFIVAGGGTAGLVVASRLSENSNWKVLVIEAGPSNKDAFVTRVPGLASTLGAGSPIDWNYTTIPQDGLDGRSLDYPRAKILGGCSTHNGMVYTRGSKDDWNSWAGIIGDQGLGWDSILPAIKKAEKFTQDFTDQSVKGHIDPSVHGFDGKLSVSAAYSNISFNDLLFETTKELNAEFPFKLDMNDGKPIGLGWTQYTIDNHAERSSSATSYLESTGDNVHVLVNTLVTRVLSASGNGTDFRKVEFAVDANSPKKQLEAKKEVIVAGGVIASPQILMNSGIGERKVLQAVGIDTLIDNPSVGKNLSDQGATSVMFDTTLPSTDFDVDAALTEWTNSHTGPLARGARLNHLTFVRLPDDKLNGQDPSSGKNSPHIEFQFAQITPQVPTLGVPKQAPLPAANSYRLLLQLAVVNLYSISRGSISLSDNNPFTYPLIDLNMFKEDIDIAILREGIRSAGRMFSSKAFKNSVNKFVYPPADATSDEDLDAFLRSSTFSYVHGVGTLSMSPKGASWGVVNPDFKVKGTSGLRVVDASVIPHAPAAHTQLPVYAFAEYASALIAKSYN
notes: monomeric glycoprotein about 90 kDa, 64 kDa deglycosylated
With B1, the Km (as a rule, the concentration of substrate that gives half-maximal velocity) was 140 ± 10 µM; the catalytic constant (kcat) (commonly the maximal rate divided by the concentration of active sites) was found to be 40.7 ± 4.1 s⁻¹; the kcat/Km (in general, the turnover number divided by the Michaelis constant) was determined as 291000 M⁻¹ s⁻¹.

B2: AmPDH (Agaricus meleagris pyranose dehydrogenase, pdh1) (Macropsalliota meleagris; H128Y) (protein)
chain: B1 chain with H103Y
notes: as for B1
For B2, the Km is 20 ± 10 µM, the kcat was 2.8 ± 0.5 s⁻¹ and the kcat/Km is 140000 M⁻¹ s⁻¹.
